Laboratory results reported in paper PMC8748511 (Nature Communications, 2022).

Molecular target: SARS-CoV-2 spike receptor binding domain (RBD) (SARS-CoV-2, founder (Wuhan-Hu-1) …, UniProt P0DTC2, amine-PEG3-biotin attached with sortase A at the C-terminal sortase motif (for SPR))

Row | Binder | binding result
1 | H5 (VHH) VHH: QVQLVESGGGLVQPGGSLRLSCAASGVTLDDYAIGWFRQAPGKEREGVSFITSSDGSTFYVDSVKGRFTIARDNAKNTVYLQMNALTPEDTAVYYCAVGPSFSSTGSTYYRSELPWDYDYWGQGTQVTVSS | binds
2 | H6 (VHH) VHH: QVQLVESGGGLVQPGGSLRLSCAASGFTLDDYAIGWFRQAPGKEREGVSFITSSDGSTYYVDSVKGRFTISRDNAKNTVYLQMNSLTPEDTAVYYCAVGPSFSYTGSTYYRSVLPWDYDYWGQGTQVTVSS | binds
3 | H11 (VHH) VHH: QVQLVESGGGLVQPGGSLRLSCAASGLTLDDYAIGWFRQAPGKEREGVSFITSSDGSTYYVDSVKGRFTISRDNAKNTVYLQMNSLTPEDTAVYYCAVGPSFSYTGSTYYRSTLPWDYDYWGQGTQVTVSS | binds
4 | H7 (VHH) VHH: QVQLVESGGGLVQPGGSLRLSCAASGFTLDDYAIGWFRQAPGKEREGVSFITSSDGSTYYVASVKGRFTISRDNAKNTVYLQMNDLTPEDTAVYYCAVGPSFSYTGSTYYRSELPWDYDYWGQGTQVTVSS | binds
5 | H9 (VHH) VHH: QVQLVESGGGLVQPGGSLRLSCAASGFTLDDYAIAWFRQAPGKEREGVSFITSSDGSTYYVDSVKGRFTISRDNAKNTVYLQMNDLTPEDTAVYYCAVGPSFSYTGSTYYRSELPWDYDYWGQGTQVTVSS | binds
6 | H8 (VHH) VHH: QVQLVESGGGLVQPGGSLRLSCAASGFTLDDYAIGWFRQAPGKEREGISFITSSDGSTYYVDSVKGRFTISRDNAKNTVYLQMNDLTPEDTAVYYCAVGPSFSYTGSTYYRSELPWDYDYWGQGTQVTVSS | binds
7 | H10 (VHH) VHH: QVQLVESGGGLVQPGGSLRLSCAASGFTLDDYAIGWFRQAPGKEREGVSFITSSDGSTYYVDSVKGRFAISRDNAKNTVYLQMNSLTPEDTAVYYCAVGPSFSRTGSTYYRSVLPWDYDYWGQGTQVTVSS | binds
